Results on 1 substance are retold here after patent US7407766.

The target of this test is full-length mouse Plexin-A1 protein (aa1 to 1894) (mouse) (UniProt P70206). Description: AP activity bound to Plexin-A1 expressing L cells, non-specific binding to parent L cells subtracted; Scatchard plot.
full-length mouse Plexin-A1 protein (aa1 to 1894) (mouse), sequence (P70206 28-1894 limits assumed): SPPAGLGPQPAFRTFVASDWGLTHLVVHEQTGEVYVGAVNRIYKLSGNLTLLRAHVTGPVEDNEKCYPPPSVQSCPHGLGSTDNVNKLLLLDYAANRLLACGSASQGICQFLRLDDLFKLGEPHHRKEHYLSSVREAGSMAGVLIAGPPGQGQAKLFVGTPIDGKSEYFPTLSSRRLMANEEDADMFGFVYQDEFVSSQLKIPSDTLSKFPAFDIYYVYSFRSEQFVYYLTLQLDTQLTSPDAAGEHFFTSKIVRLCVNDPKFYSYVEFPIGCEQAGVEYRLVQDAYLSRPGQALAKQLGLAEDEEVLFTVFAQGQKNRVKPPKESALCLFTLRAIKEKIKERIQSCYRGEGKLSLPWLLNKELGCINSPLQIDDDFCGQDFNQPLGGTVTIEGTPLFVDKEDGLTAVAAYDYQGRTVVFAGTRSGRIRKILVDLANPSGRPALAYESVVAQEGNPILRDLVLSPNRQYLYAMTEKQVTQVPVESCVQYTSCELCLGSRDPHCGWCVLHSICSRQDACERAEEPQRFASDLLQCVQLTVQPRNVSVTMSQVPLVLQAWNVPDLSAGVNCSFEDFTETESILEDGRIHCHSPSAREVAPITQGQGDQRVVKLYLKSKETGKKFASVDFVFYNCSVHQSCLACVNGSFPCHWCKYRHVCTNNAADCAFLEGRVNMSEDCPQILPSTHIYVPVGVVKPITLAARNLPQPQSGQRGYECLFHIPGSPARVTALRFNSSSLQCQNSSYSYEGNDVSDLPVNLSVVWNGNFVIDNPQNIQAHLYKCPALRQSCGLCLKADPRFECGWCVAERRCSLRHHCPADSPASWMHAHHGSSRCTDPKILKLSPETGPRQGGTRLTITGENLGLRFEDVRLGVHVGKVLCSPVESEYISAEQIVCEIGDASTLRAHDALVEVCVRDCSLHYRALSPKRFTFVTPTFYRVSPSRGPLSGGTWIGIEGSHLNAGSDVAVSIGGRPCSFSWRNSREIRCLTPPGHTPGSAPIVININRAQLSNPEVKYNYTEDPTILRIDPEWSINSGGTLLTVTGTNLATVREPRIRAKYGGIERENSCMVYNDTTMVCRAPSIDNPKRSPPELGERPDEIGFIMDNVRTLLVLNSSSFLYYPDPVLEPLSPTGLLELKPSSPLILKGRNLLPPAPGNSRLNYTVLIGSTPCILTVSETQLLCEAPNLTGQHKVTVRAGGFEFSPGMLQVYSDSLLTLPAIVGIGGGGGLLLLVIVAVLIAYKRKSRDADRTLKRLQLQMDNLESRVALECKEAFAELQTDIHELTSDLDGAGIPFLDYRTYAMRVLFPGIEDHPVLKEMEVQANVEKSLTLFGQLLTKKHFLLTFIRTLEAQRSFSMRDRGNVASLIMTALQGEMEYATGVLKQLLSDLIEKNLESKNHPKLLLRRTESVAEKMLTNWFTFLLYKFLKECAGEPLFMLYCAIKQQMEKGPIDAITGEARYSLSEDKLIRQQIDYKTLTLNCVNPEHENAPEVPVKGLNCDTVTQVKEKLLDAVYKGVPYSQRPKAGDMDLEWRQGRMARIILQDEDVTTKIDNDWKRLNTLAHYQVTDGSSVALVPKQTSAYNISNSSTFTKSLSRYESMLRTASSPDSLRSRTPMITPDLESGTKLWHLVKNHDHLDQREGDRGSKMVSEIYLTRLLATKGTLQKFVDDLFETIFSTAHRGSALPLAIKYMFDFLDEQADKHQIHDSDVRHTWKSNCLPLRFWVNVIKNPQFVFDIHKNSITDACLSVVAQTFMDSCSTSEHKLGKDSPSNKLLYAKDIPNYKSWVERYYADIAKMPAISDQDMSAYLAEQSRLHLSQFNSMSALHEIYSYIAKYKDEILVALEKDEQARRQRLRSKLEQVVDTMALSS

Broadly, the Kd is the constant that tells how readily two partners part at equilibrium. Consider “Sema6C-alkaline phosphatase fusion protein (Sema6C-S-AP) (from UniProt Q9WTL3 24-599; P05187 23-511) (ligand)”, for which the Kd is 16.5 nM.
